Target: truncated M1 C-terminal domain ([change], aa 165-252) (influenza/A/FPV/Rostock/34) (UniProt P03487)
Test: raster image correlation spectroscopy

For “truncated M1 C-terminal domain ([change], aa 165-252) (from UniProt P03487 165-252) (domain or fragment)”, the brightness of M1 wt relative to M1-C (fold) was 4.3 fold.

From paper doi:10.1101/369462
